For experiment [1], the target named is T1, human complement C1s enzyme (activated C1s) (human, UniProt P09871 16-437; P09871 438-688).
T1 construct: Bought from Complement Technology; Disulfide-linked heterodimer; Biotinylated with EZ-Link Sulfo-NHS-LC-LC-Biotin when captured in BLI; also called active C1s; aC1s
T1 sequence 1: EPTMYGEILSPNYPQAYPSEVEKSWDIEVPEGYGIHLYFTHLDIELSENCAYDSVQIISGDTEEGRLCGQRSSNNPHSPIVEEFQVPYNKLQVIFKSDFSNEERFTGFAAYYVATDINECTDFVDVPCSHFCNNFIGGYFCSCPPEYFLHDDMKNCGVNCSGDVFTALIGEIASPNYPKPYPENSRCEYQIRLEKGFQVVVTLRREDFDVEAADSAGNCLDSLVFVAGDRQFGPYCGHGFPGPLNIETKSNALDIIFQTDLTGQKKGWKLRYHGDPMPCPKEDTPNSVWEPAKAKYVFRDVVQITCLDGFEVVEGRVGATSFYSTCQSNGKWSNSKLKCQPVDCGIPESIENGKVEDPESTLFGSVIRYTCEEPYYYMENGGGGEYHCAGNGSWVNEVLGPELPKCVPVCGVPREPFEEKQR
T1 sequence 2: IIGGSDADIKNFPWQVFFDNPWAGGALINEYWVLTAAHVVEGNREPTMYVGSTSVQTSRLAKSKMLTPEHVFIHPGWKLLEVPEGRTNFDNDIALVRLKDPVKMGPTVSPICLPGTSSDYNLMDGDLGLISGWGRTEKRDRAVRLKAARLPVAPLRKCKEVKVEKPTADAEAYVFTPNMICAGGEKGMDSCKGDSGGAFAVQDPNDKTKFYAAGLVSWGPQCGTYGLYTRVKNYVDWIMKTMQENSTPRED
The experiment is described as follows: SPR, purified protein.

In experiment [2] the target is T1, human complement C1s enzyme (activated …). The experiment is described as follows: cell-based or functional assay.
Experiment [3] has the same target. Nature of the experiment: BLI (Octet), biotinylated target on streptavidin sensor.
Experiment [4] shares this target. The experiment is described as follows: cell-based or functional assay. The source holds these as a separate data set.
The target is the same in experiment [5]. Nature of the experiment: cell-based or functional assay. The source holds these as a separate data set.
For experiment [6] the target is unchanged. The experiment is described as follows: cell-based or functional assay. This is another data set of the same source.
Experiment [7] shares this target. Nature of the experiment: BLI (Octet), biotinylated target on streptavidin sensor. This is another data set of the same source.
Experiment [8] shares this target. Nature of the experiment: SPR.
The target in experiment [9] is T2, human complement factor Bb (human, UniProt P00751 260-764).
T2 construct: Bought from Complement Technology; Biotinylated with EZ-Link Sulfo-NHS-LC-LC-Biotin when captured in BLI; also called FBb
The experiment is described as follows: SPR, purified protein.

The target in experiment [10] is T2, human complement factor Bb. Nature of the experiment: cell-based or functional assay.
Experiment [11] deals with T2, human complement factor Bb. The experiment is described as follows: BLI (Octet), biotinylated target on streptavidin sensor.
Experiment [12] concerns the target T2, human complement factor Bb. Nature of the experiment: cell-based or functional assay. The source holds these as a separate data set.
Experiment [13] addresses T2, human complement factor Bb. Nature of the experiment: cell-based or functional assay. The source holds these as a separate data set.
The target of experiment [14] is T2, human complement factor Bb. The experiment is described as follows: cell-based or functional assay. The source holds these as a separate data set.
Experiment [15] has as its target T2, human complement factor Bb. The experiment is described as follows: BLI (Octet), biotinylated target on streptavidin sensor. This is another data set of the same source.
Experiment [16] concerns the target T2, human complement factor Bb. Nature of the experiment: SPR.
For a further experiment, the target named is T3, cynomolgus Bb (cynomolgus, UniProt A0A2K5TZY3 260-763).
T3 construct: Named only in the sentence that gives the KD; also called cynomolgus target
Nature of the experiment: method not given.

Experiment [17] has as its target T2, human complement factor Bb. The experiment is described as follows: cell-based or functional assay. This is another data set of the same source.
Experiment [18] has as its target T2, human complement factor Bb. Nature of the experiment: BLI (Octet), biotinylated target on streptavidin sensor; mixture of the two scFabs from construct #9. The source says:
(§1) Bio-layer interferometry (BLI) was used to assess the recombinant proteins' target engagement to and binding affinity for complement C1s enzyme (active C1s or “C1s” herein) and factor Bb (Bb) (Complement Technology, Tyler, TX, USA). C1s and Bb were biotinylated with EZ-Link™ Sulfo-NHS-LC-LC-Biotin (Thermo Fisher, Waltham, MA, USA) according to manufacturer instructions. Biotinylated C1s or Bb was loaded on Octet® Streptavidin (SA) Biosensors (Sartorius, Göttingen, Germany), followed by a concentration range of purified proteins. To assess dual target engagement, biotinylated active C1s or Bb was loaded onto sensors, followed by purified proteins (“first association phase”), followed by the non-captured complement target (Bb or active C1s, non-biotinylated; “second association phase”). The assays were performed at 30° C. using PBS with 0.1% Tween 20 as a diluent (FIG. 3).

The target of experiment [19] is T2, human complement factor Bb. Nature of the experiment: BLI (Octet), biotinylated target on streptavidin sensor; partially purified mixture of the two scFabs from construct #9; mixture of the two scFabs from construct #9.
From the text: as §1
The third expression construct, construct #9 (FIGS. 2B and 21), is composed of a bidirectional minCBA promoter driving expression of separate transcripts encoding human codon-optimized αBb scFab or αC1s scFab [αC1s scFab+αBb scFab], each followed by a bGH poly (A) signal.

The target in experiment [20] is T2, human complement factor Bb. The experiment is described as follows: cell-based or functional assay. This is another data set of the same source.
For experiment [21], the target named is T2, human complement factor Bb. Nature of the experiment: BLI (Octet), biotinylated target on streptavidin sensor; protein purified to >98%.
From the text: as §1

T2 sequence (P00751 260-764): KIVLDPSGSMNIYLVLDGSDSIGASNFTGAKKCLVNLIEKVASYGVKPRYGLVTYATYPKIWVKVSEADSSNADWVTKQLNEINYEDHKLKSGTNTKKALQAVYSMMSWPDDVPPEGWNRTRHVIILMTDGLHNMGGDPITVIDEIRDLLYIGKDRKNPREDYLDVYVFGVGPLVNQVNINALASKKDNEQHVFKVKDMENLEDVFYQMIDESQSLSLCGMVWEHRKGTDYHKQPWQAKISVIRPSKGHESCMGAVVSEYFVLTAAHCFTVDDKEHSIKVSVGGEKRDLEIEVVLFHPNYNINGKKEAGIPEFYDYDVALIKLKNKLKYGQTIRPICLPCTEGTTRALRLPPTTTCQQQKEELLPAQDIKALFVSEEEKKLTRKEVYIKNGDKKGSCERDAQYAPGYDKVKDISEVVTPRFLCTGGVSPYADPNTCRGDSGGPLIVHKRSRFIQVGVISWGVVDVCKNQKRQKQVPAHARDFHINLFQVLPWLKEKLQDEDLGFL
T3 sequence (A0A2K5TZY3 entry or part of it): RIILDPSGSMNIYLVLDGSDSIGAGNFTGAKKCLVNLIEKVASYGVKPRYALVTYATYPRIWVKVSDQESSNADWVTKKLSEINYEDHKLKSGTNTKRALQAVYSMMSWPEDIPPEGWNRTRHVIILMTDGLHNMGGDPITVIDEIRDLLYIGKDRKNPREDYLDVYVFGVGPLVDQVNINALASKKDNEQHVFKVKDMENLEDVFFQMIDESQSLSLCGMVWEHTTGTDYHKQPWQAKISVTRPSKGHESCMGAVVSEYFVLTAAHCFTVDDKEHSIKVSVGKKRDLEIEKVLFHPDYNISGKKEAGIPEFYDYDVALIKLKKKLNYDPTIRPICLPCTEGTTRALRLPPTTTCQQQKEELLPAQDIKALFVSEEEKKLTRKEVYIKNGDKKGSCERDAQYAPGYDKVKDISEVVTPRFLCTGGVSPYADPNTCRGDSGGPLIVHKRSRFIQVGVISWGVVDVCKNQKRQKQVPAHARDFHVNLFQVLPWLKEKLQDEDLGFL

B1: parental anti-C1s Fab (Fab, V domains shown)
VH: QVQLVQSGAEVKKPGASVKLSCTASGFNIKDDYIHWVKQAPGQGLEWIGRIDPADGHTKYAPKFQVKVTITADTSTSTAYLELSSLRSEDTAVYYCARYGYGREVFDYWGQGTTVTVSS
VL: DIVLTQSPDSLAVSLGERATISCKASQSVDYDGDSYMNWYQQKPGQPPKILIYDASNLESGIPARFSGSGSGTDFTLTISSLEPEDFAIYYCQQSNEDPWTFGGGTKVEIKR
notes: also called Purified anti-C1s Fab
B1: the Kd in experiment [1], in experiment [3] and in experiment [7] was 0.3 nM each time. Besides, the “IC50 CP (Wieslab)” value in experiment [2] came to 5.4 nM. The “IC50 (nM), complement activation with CP and AP activated simultaneously in vitro” value (shortened to “IC50 (nM), complement activation”) in experiment [4] is 68.2 nM. Besides, the “Wieslab classical pathway IC50” value in [5] was 5.5 nM. The “CP IC50 (Wieslab)” value in [6] was determined as 6 nM.

B2: parental anti-C1s IgG4 antibody VH3/Vκ2 (antibody, V domains shown)
VH: QVQLVQSGAEVKKPGASVKLSCTASGFNIKDDYIHWVKQAPGQGLEWIGRIDPADGHTKYAPKFQVKVTITADTSTSTAYLELSSLRSEDTAVYYCARYGYGREVFDYWGQGTTVTVSS
VL: DIVLTQSPDSLAVSLGERATISCKASQSVDYDGDSYMNWYQQKPGQPPKILIYDASNLESGIPARFSGSGSGTDFTLTISSLEPEDFAIYYCQQSNEDPWTFGGGTKVEIK
notes: IgG4, from WO 2018/071676; full chains of the mAb are not; also called anti-C1s mAb; VH3/VK2
Take B2: in [5], the “Wieslab classical pathway IC50” value stood at 22 nM. The molecule further came in with a Kd in [8] of 1.5 nM.

B3: parental anti-Bb Fab (Fab, V domains shown)
VH: EVQLVESGGGLVKPGGSLRLSCAASGFTFSNYAMSWVRQAPGKRLEWVATISNRGSYTYYPDSVKGRFTISRDNAKNSLYLQMNSLRAEDTALYYCARERPMDYWGQGTLVTVSS
VL: DIQMTQSPSTLSASVGDRVTITCKASQDVGTAVAWYQQKPGKAPKLLIYWASTRHTGVPDRFSGSGSGTDFTLTISSLQAEDFAVYFCHQHSSNPLTFGQGTKLEIKR
notes: also called Purified anti-Bb Fab
Molecule B3 yielded a Kd in experiment [9] of 2.7 nM. Besides, in experiment [10], the “IC50 AP (Wieslab)” value turned out to be 144 nM. Moreover, in [11], the Kd stood at 0.73 nM, the koff was 0.00051 s⁻¹ and the kon came out at 700000 M⁻¹ s⁻¹. Further, the “IC50 (nM), complement activation” value in experiment [12] amounted to 463 nM. In addition, the “Wieslab alternative pathway IC50” value in experiment [13] turned out to be 144 nM. Moreover, the “AP IC50 (Wieslab)” value in experiment [14] is 99 nM. Also, the dissociation constant Kd in experiment [15] was 0.7 nM.

B4: parental anti-Bb IgG4 antibody VH6/Vκ7-IgG4v2 (antibody, V domains shown)
VH: EVQLVESGGGLVKPGGSLRLSCAASGFTFSNYAMSWVRQAPGKRLEWVATISNRGSYTYYPDSVKGRFTISRDNAKNSLYLQMNSLRAEDTALYYCARERPMDYWGQGTLVTVSS
VL: DIQMTQSPSTLSASVGDRVTITCKASQDVGTAVAWYQQKPGKAPKLLIYWASTRHTGVPDRFSGSGSGTDFTLTISSLQAEDFAVYFCHQHSSNPLTFGQGTKLEIK
notes: IgG4 (IgG4v2), from U.S. Pat. No. 11,242,382 and WO 2021/216458; full chains of the mAb are not; also called anti-Bb mAb
On to B4, for which the “Wieslab alternative pathway IC50” value in experiment [13] was 190 nM. The molecule further yielded an equilibrium dissociation constant (Kd) in experiment [16] of 7.3 nM.

B5: anti-Bb scFab (construct #4) (Fab)
chain: DIQMTQSPSTLSASVGDRVTITCKASQDVGTAVAWYQQKPGKAPKLLIYWASTRHTGVPDRFSGSGSGTDFTLTISSLQAEDFAVYFCHQHSSNPLTFGQGTKLEIKRTVAAPSVFIFPPSDEQLKSGTASVVCLLNNFYPREAKVQWKVDNALQSGNSQESVTEQDSKDSTYSLSSTLTLSKADYEKHKVYACEVTHQGLSSPVTKSFNRGECGGGGSGGGGSGGGGSGGGGSGGGGSGGGGSGGGGSEVQLVESGGGLVKPGGSLRLSCAASGFTFSNYAMSWVRQAPGKRLEWVATISNRGSYTYYPDSVKGRFTISRDNAKNSLYLQMNSLRAEDTALYYCARERPMDYWGQGTLVTVSSASTKGPSVFPLAPCSRSTSESTAALGCLVKDYFPEPVTVSWNSGALTSGVHTFPAVLQSSGLYSLSSVVTVPSSSLGTKTYTCNVDHKPSNTKVDKRV
notes: Single-chain Fab: LC-(G4S)7-HC (VH-CH1); there it stood in a mixture with the anti-C1s scFab; also called αBb scFab; Purified anti-Bb scFab
B5: the Kd in the experiment with cynomolgus Bb was 14.8 nM; in experiment [9], 3.7 nM; in [18], 0.8 nM; in experiment [11], 0.7 nM; in experiment [19], 0.9 nM; in experiment [21] it was 0.7 nM. For the same molecule, the “Wieslab AP IC50 of #9-derived fragments, fold of purified anti-Bb Fab” value in experiment [17] is around 3 fold. The koff in [18] was 0.0002 s⁻¹; in [11], 0.00049 s⁻¹. The on-rate (kon) in [18] was 260000 M⁻¹ s⁻¹; in [11], 670000 M⁻¹ s⁻¹. For the same molecule, the “IC50 AP (Wieslab)” value in [10] came out at 193 nM. Further, the “IC50 AP (Wieslab), mixture of scFabs from construct #9” value in experiment [10] turned out to be 224 nM. The “IC50 (nM), complement activation” value in experiment [12] came out at 633 nM. Also, the “Wieslab alternative pathway IC50” value in experiment [13] was 190 nM. Moreover, the “AP IC50 (Wieslab), mixture of scFabs from construct #9” value in experiment [14] is 224 nM. Further, in experiment [20], the “IC50 AP Wieslab EIA” value is 193 nM.

The record behind these values is US20240401082A1 (Sanofi, published 2024).
